From PMC9127220 (The Journal of Biological Chemistry, 2022) come the findings set out here.

To fix the notation:
B2: MukB (natural protein, Escherichia coli, UniProt P22523 1-1486, looked up)
chain: MIERGKFRSLTLINWNGFFARTFDLDELVTTLSGGNGAGKSTTMAAFVTALIPDLTLLHFRNTTEAGATSGSRDKGLHGKLKAGVCYSMLDTINSRHQRVVVGVRLQQVAGRDRKVDIKPFAIQGLPMSVQPTQLVTETLNERQARVLPLNELKDKLEAMEGVQFKQFNSITDYHSLMFDLGIIARRLRSASDRSKFYRLIEASLYGGISSAITRSLRDYLLPENSGVRKAFQDMEAALRENRMTLEAIRVTQSDRDLFKHLISEATNYVAADYMRHANERRVHLDKALEFRRELHTSRQQLAAEQYKHVDMARELAEHNGAEGDLEADYQAASDHLNLVQTALRQQEKIERYEADLDELQIRLEEQNEVVAEAIERQQENEARAEAAELEVDELKSQLADYQQALDVQQTRAIQYNQAIAALNRAKELCHLPDLTADCAAEWLETFQAKELEATEKMLSLEQKMSMAQTAHSQFEQAYQLVVAINGPLARNEAWDVARELLREGVDQRHLAEQVQPLRMRLSELEQRLREQQEAERLLADFCKRQGKNFDIDELEALHQELEARIASLSDSVSNAREERMALRQEQEQLQSRIQSLMQRAPVWLAAQNSLNQLSEQCGEEFTSSQDVTEYLQQLLEREREAIVERDEVGARKNAVDEEIERLSQPGGSEDQRLNALAERFGGVLLSEIYDDVSLEDAPYFSALYGPSRHAIVVPDLSQVTEHLEGLTDCPEDLYLIEGDPQSFDDSVFSVDELEKAVVVKIADRQWRYSRFPEVPLFGRAARESRIESLHAEREVLSERFATLSFDVQKTQRLHQAFSRFIGSHLAVAFESDPEAEIRQLNSRRVELERALSNHENDNQQQRIQFEQAKEGVTALNRILPRLNLLADDSLADRVDEIRERLDEAQEAARFVQQFGNQLAKLEPIVSVLQSDPEQFEQLKEDYAYSQQMQRDARQQAFALTEVVQRRAHFSYSDSAEMLSGNSDLNEKLRERLEQAEAERTRAREALRGHAAQLSQYNQVLASLKSSYDTKKELLNDLQRELQDIGVRADSGAEERARIRRDELHAQLSNNRSRRNQLEKALTFCEAEMDNLTRKLRKLERDYFEMREQVVTAKAGWCAVMRMVKDNGVERRLHRRELAYLSADDLRSMSDKALGALRLAVADNEHLRDVLRMSEDPKRPERKIQFFVAVYQHLRERIRQDIIRTDDPVEAIEQMEIELSRLTEELTSREQKLAISSRSVANIIRKTIQREQNRIRMLNQGLQNVSFGQVNSVRLNVNVRETHAMLLDVLSEQHEQHQDLFNSNRLTFSEALAKLYQRLNPQIDMGQRTPQTIGEELLDYRNYLEMEVEVNRGSDGWLRAESGALSTGEAIGTGMSILVMVVQSWEDESRRLRGKDISPCRLLFLDEAARLDARSIATLFELCERLQMQLIIAAPENISPEKGTTYKLVRKVFQNTEHVHVVGLRGFAPQLPETLPGTDEAPSQAS

The target in data set [1] is B2. Put plainly: cross-linking.
The data set “cross-linking” deals with the molecule itself. Put plainly: cross-linking.
For data set [2], the target named is B2. Description: cross-linking. The source holds these as a separate data set.
The target of data set [3] is B2. Put plainly: co-purification.

Read-outs that look alike come from different tables or passages of the source.

B1: MukF (natural protein, Escherichia coli, UniProt P60293 1-440, looked up)
chain: MSEFSQTVPELVAWARKNDFSISLPVDRLSFLLAVATLNGERLDGEMSEGELVDAFRHVSDAFEQTSETIGVRANNAINDMVRQRLLNRFTSEQAEGNAIYRLTPLGIGITDYYIRQREFSTLRLSMQLSIVAGELKRAADAAEEGGDEFHWHRNVYAPLKYSVAEIFDSIDLTQRLMDEQQQQVKDDIAQLLNKDWRAAISSCELLLSETSGTLRELQDTLEAAGDKLQANLLRIQDATMTHDDLHFVDRLVFDLQSKLDRIISWGQQSIDLWIGYDRHVHKFIRTAIDMDKNRVFAQRLRQSVQTYFDEPWALTYANADRLLDMRDEEMALRDEEVTGELPEDLEYEEFNEIREQLAAIIEEQLAVYKTRQVPLDLGLVVREYLSQYPRARHFDVARIVIDQAVRLGVAQADFTGLPAKWQPINDYGAKVQAHVIDKY
On to B1, for which the binding result with MukB [1] is recorded as “binds”. With B2, the binding result in the data set “cross-linking” is “binds”.

B3: ParC subunit of topoisomerase IV (natural protein, Escherichia coli, UniProt P0AFI2 1-752, looked up)
chain: MSDMAERLALHEFTENAYLNYSMYVIMDRALPFIGDGLKPVQRRIVYAMSELGLNASAKFKKSARTVGDVLGKYHPHGDSACYEAMVLMAQPFSYRYPLVDGQGNWGAPDDPKSFAAMRYTESRLSKYSELLLSELGQGTADWVPNFDGTLQEPKMLPARLPNILLNGTTGIAVGMATDIPPHNLREVAQAAIALIDQPKTTLDQLLDIVQGPDYPTEAEIITSRAEIRKIYENGRGSVRMRAVWKKEDGAVVISALPHQVSGARVLEQIAAQMRNKKLPMVDDLRDESDHENPTRLVIVPRSNRVDMDQVMNHLFATTDLEKSYRINLNMIGLDGRPAVKNLLEILSEWLVFRRDTVRRRLNYRLEKVLKRLHILEGLLVAFLNIDEVIEIIRNEDEPKPALMSRFGLTETQAEAILELKLRHLAKLEEMKIRGEQSELEKERDQLQGILASERKMNNLLKKELQADAQAYGDDRRSPLQEREEAKAMSEHDMLPSEPVTIVLSQMGWVRSAKGHDIDAPGLNYKAGDSFKAAVKGKSNQPVVFVDSTGRSYAIDPITLPSARGQGEPLTGKLTLPPGATVDHMLMESDDQKLLMASDAGYGFVCTFNDLVARNRAGKALITLPENAHVMPPVVIEDASDMLLAITQAGRMLMFPVSDLPQLSKGKGNKIINIPSAEAARGEDGLAQLYVLPPQSTLTIHVGKRKIKLRPEELQKVTGERGRRGTLMRGLQRIDRVEIDSPRRASSGDSEE
For B3, the binding result with MukB [2] was “binds”.

B4: acyl carrier protein (AcpP) (natural protein, E. coli (endogenous in BL21(DE3)), UniProt P0A6A8 1-78, looked up)
chain: MSTIEERVKKIIGEQLGVKQEEVTNNASFVEDLGADSLDTVELVMALEEEFDTEIPDEEAEKITTVQAAIDYINGHQA
Take B4: the “stoichiometry N” value in the data set with MukB [3] is 1 AcpP:MukB.
